B1: Hairpin Ribozyme (parent)
chain: GUCCUCUUUCACGUGCGCGUGAAAGAGAGAAGUGAACCAGAGAAACACACGUUGUGGUAUAUUACCUGGUA

The text below walks through data of the RNAGym collection of RNA variant scans (doi:10.7554/elife.80360).

This series covers variants of B1. As to the kind of experiment: self-cleavage, relative activity (ratio to wild type); higher = more cleavage; co-transcriptional.
Turning to C66G U70A, the self-cleavage worked out at 0.273. Under C66G U70G stands 0.2; under C66G U70C, 0.132; under G68U G69C, 0.136. Under G69U U70A stands 0.346; under C66U A71U, 0.417. As for C66U A71G, the self-cleavage worked out at 0.484. As for G68U, the figure is 0.254; as for G68A, 0.282. As for G68C, the figure is 0.212; as for G68C G69A, 0.152; as for G68C G69C, 0.206.

G69C U70G: the self-cleavage turned out to be 0.657. Under U67A U70C stands 0.247. As for U67G A71C, the figure is 0.37; as for G69A U70A, 0.434; as for U67G G68A, 0.138. As for U67A G69U, the figure is 0.321; as for G68A G69C, 0.19; as for G68A G69A, 0.103. As for C66U G68A, the self-cleavage amounted to 0.0865. As for C66U G68U, the self-cleavage worked out at 0.334. With U67G G69U, the self-cleavage was 0.165.

As for U67G G69C, the self-cleavage was determined as 0.13. Under G69C A71U stands 0.57. On to G68A U70G, for which the self-cleavage was 0.3. With G68A U70C, the self-cleavage worked out at 0.336. With G68U U70A, the self-cleavage is 0.269. Under G68U U70C stands 0.201. As for G68A A71G, the figure is 0.174; as for G68C U70G, 0.576; as for C66U U67A, 0.162. On to U70G A71G, for which the self-cleavage is 1.82.

Consider U67C A71G, for which the self-cleavage came to 0.132. As for U67C A71C, the self-cleavage was found to be 0.359. Under U67G U70G stands 0.125; under U67G U70C, 0.588; under U67G U70A, 0.214. Under A71C stands 1.42; under A71U, 0.796.

As for A71G, the self-cleavage was 1.04. Regarding U67C G69C, the self-cleavage worked out at 0.188. Under U67A stands 0.229; under U67C, 0.227. As for U67G, the figure is 0.28; as for C66U U70C, 0.506.

Turning to C66U U70A, the self-cleavage was 0.356. Under U70A A71U stands 1.63. Under U70A A71G stands 0.886. For the variant U67C G68C, the self-cleavage amounted to 0.178.
